PMC7961906, “CNBP Binds and Unfolds In Vitro G-Quadruplexes Formed in the SARS-CoV-2 Positive and Negative Genome Strands”

Assays:
CNBP (ZNF9) [1] = biological target: T1, CNBP (ZNF9) (Homo sapiens, UniProt P62633 1-177); test: EMSA; folded in 200 mM Li+; 100 mM LiCl in binding; slightly higher affinity than in K+; EMSA: 20 mM HEPES pH 8.0, 10 mM MgCl2, 1 mM EDTA, 0.5 ug/uL heparin, 1 mM DTT, 1 ug/uL BSA, 10% glycerol, 100 mM KCl or LiCl, 0.75 uM RNA, 30 min 37 C; CD: 10 mM Tris-HCl pH 7.5 + 100/200 mM KCl, protein incubation 30 min 37 C, spectra at 20 C; conditions: protein: recombinant; tags: tag-free (expressed from pET-32a-TEV-CNBP, tag removed); intramolecular G4 (two-quartet)
T1 sequence (P62633 whole entry): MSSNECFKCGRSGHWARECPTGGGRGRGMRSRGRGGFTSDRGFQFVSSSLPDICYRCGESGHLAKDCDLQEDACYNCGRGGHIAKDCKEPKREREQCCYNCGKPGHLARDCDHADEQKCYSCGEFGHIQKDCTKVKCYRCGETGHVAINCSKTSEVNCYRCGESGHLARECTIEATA

CNBP (ZNF9) [2] = biological target: T1, CNBP (ZNF9); test: EMSA; folded in 200 mM Li+ or K+; EMSA: 20 mM HEPES pH 8.0, 10 mM MgCl2, 1 mM EDTA, 0.5 ug/uL heparin, 1 mM DTT, 1 ug/uL BSA, 10% glycerol, 100 mM KCl or LiCl, 0.75 uM RNA, 30 min 37 C; CD: 10 mM Tris-HCl pH 7.5 + 100/200 mM KCl, protein incubation 30 min 37 C, spectra at 20 C; conditions: protein: recombinant; tags: tag-free (expressed from pET-32a-TEV-CNBP, tag removed); no G4 formed; predicted 4-bp stem-loop
CNBP (ZNF9) [3] = biological target: T1, CNBP (ZNF9); test: EMSA; folded in 100 mM Li+; 100 mM LiCl in binding; slightly higher affinity than in K+; EMSA: 20 mM HEPES pH 8.0, 10 mM MgCl2, 1 mM EDTA, 0.5 ug/uL heparin, 1 mM DTT, 1 ug/uL BSA, 10% glycerol, 100 mM KCl or LiCl, 0.75 uM RNA, 30 min 37 C; CD: 10 mM Tris-HCl pH 7.5 + 100/200 mM KCl, protein incubation 30 min 37 C, spectra at 20 C; conditions: protein: recombinant; tags: tag-free (expressed from pET-32a-TEV-CNBP, tag removed); intramolecular G4; minor self-assembled multimer band in Li+
CNBP (ZNF9) [4] = biological target: T1, CNBP (ZNF9); test: CD (G4 unfolding); 100 mM K+ folding; 8 uM, 1:1; EMSA: 20 mM HEPES pH 8.0, 10 mM MgCl2, 1 mM EDTA, 0.5 ug/uL heparin, 1 mM DTT, 1 ug/uL BSA, 10% glycerol, 100 mM KCl or LiCl, 0.75 uM RNA, 30 min 37 C; CD: 10 mM Tris-HCl pH 7.5 + 100/200 mM KCl, protein incubation 30 min 37 C, spectra at 20 C; conditions: protein: recombinant; tags: tag-free (expressed from pET-32a-TEV-CNBP, tag removed); intramolecular G4
CNBP (ZNF9) [5] = biological target: T1, CNBP (ZNF9); test: CD (G4 unfolding); 200 mM K+ folding; 8 uM, 1:1; EMSA: 20 mM HEPES pH 8.0, 10 mM MgCl2, 1 mM EDTA, 0.5 ug/uL heparin, 1 mM DTT, 1 ug/uL BSA, 10% glycerol, 100 mM KCl or LiCl, 0.75 uM RNA, 30 min 37 C; CD: 10 mM Tris-HCl pH 7.5 + 100/200 mM KCl, protein incubation 30 min 37 C, spectra at 20 C; conditions: protein: recombinant; tags: tag-free (expressed from pET-32a-TEV-CNBP, tag removed); intramolecular G4

Does GGUAAUAAAGGAGCUGGUGG (structured_RNA) [+644] bind (CNBP (ZNF9) [1])?
Result: binds

Does GGCUGGCAAUGGCGG (structured_RNA) [+28,903] bind (CNBP (ZNF9) [2])?
Result: no binding

Does GGAGGAGGUGUUGCAGGA (structured_RNA) [+3467] bind (CNBP (ZNF9) [3])?
Result: binds

Does GGAUAUGGUUGGUUUGG (structured_RNA) [-23,877] bind (CNBP (ZNF9) [4])?
Result: binds

Does GGAUCUGGGUAAGGAAGG (structured_RNA) [-13,963] bind (CNBP (ZNF9) [5])?
Result: binds
